Measured values: US20170247440A1 (Hoffmann-La Roche, published 2017)

Tests used:
rat PDGF-BB = rat PDGF-BB (rat, UniProt Q05028 74-182); experiment: ELISA, immobilized rat PDGF-BB (Example 12)
Experimental: (§1) The binding analysis was carried out using an enzyme-linked immunosorbent assay (ELISA)-based technology. The antigen rat PDGF-BB (R&D, 520-BB) was immobilized at a concentration of 125 ng/mL in 25 μL in PBS, 0.5% BSA and 0.05% Tween on a 384 well microtiter plate (Thermo Scientific, Cat. No. 464718). Every of the following steps was followed by a washing routine of 3 times 90 μL PBS, 0.5% BSA, 0.05 Tween with dispense and aspiration: 1) blocking step: saturating unbound surface (1 hour, 2% BSA); 2) anti-PDGF-BB antibody in increasing concentrations for 1 hour; 3) detection antibody, dilution=1:3000 (ECL anti-rabbit IgG-POD, NA9340V+ECL anti-human IgG-POD, NA933V or alternatively for murine antibodies ECL anti-mouse IgG-POD; NA 9310V). 20-30 min. after adding the substrate 3,3′,5,5′-tetramethylbenzidine (TMB, Piercenet, Cat. No. 34021) the optical density was determined at 370 nm. The EC₅₀ was calculated with a four parameter logistic model using GraphPad Prism 6.0 software.

human PDGF-BB [1] = target: T1, human PDGF-BB (human, UniProt P01127 82-190); experiment: SPR, IgG
T1 construct: Bought recombinant protein (Cell Signaling 8921BF or R&D Systems 220-BB); also called huPDGF-BB; recombinant human PDGF-BB

murine PDGF-BB = target: T2, murine PDGF-BB (murine, UniProt P31240 82-190); experiment: ELISA, immobilized murine PDGF-BB (Example 11)
T2 construct: also called muPDGF-BB
Experimental: as §1, with “antigen murine” for “antigen rat”, “PDGF-BB (Peprotech 315-18)” for “PDGF-BB (R&D, 520-BB)”

human PDGF-BB [2] = target: T1, human PDGF-BB; experiment: SPR, IgG, apparent KD (App. KD**)
cynomolgus PDGF-BB [3] = target: T3, cynomolgus PDGF-BB (cynomolgus, UniProt A0A2K5UX81 82-190, Disulfide-linked homodimer of two identical B chains; one copy is given.); experiment: SPR, apparent KD (avidity), IgG on immobilized cynomolgus PDGF-BB (Example 18)
T3 construct: also called cynPDGF-BB
Experimental: The binding analysis was carried out using a surface plasmon resonance spectroscopy-based technology applying a BIAcore B4000 system (GE Healthcare). The antigen cynomolgus PDGF-BB was immobilized at a concentration of 1 μg/mL in PBS, 0.1% BSA, 0.05% Tween using amine coupling chemistry on a C1 sensor chip (GE Healthcare, Cat. No. BR-1005-35). Anti-PDGF-BB antibody in increasing concentrations was applied in 10 mM HEPES pH 7.2, 150 mM NaCl. Utilizing a read out time of 180 sec. association phase and 600 sec. dissociation phase the apparent kₐ and apparent kd were calculated. The apparent KD (avidity) was calculated using the BIAcore T200 v2.0 fitting software.

human PDGF-BB [4] = target: T1, human PDGF-BB; experiment: cell-based or functional assay
cynomolgus PDGF-BB [5] = target: T3, cynomolgus PDGF-BB; experiment: ELISA, cynomolgus PDGF-BB (Example 10)
human PDGF-BB [6] = target: T1, human PDGF-BB; experiment: inhibition ELISA: biotinylated huPDGF-BB binding to immobilized Fc-tagged huPDGF-Rβ (Example 15)
Experimental: The protein-protein interaction inhibition analysis of human PDGF-BB to the human PDGF-BB receptor was carried out using an enzyme-linked immunosorbent assay (ELISA)-based technology. The human Fc-tagged PDGF-BB receptor protein (RnD, Cat. No. 385-PR-100) was immobilized at a concentration of […] in 25 μL in PBS, 0.5% BSA and 0.05% Tween on a 384 well microtiter plate (Thermo Scientific Cat. No. 464718). Every of the following steps was followed by a washing routine of 3 times 90 μL PBS with dispense and aspiration: 1) blocking step saturating unbound surface (1 hour, 2% BSA); 2) 15 μL anti-PDGF-BB antibody in increasing concentrations was incubated with 15 μL biotinylated human PDGF-BB (Cell Signaling, Cat. No. 8921BF) at 75 nM in a volume of 30 μL for 1 hour; 3) detection was achieved using peroxidase-labeled streptavidin (Roche Diagnostics GmbH, Mannheim, Germany, Cat. No. 11089153001). 20-30 min. after adding the substrate 3,3′,5,5′-tetramethylbenzidine (TMB, Piercenet, Cat. No. 34021) the optical density was determined at 370 nm. The IC₅₀ was calculated with a four parameter logistic model using GraphPad Prism 6.0 software.

T3 sequence (A0A2K5UX81 entry or part of it limits assumed): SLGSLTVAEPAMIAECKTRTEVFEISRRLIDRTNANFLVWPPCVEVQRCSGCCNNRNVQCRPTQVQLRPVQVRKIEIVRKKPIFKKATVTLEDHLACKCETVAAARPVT
T2 sequence (P31240 82-190): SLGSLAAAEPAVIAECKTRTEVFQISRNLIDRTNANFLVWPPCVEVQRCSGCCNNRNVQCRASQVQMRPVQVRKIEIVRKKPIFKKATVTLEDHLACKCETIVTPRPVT
T1 sequence (P01127 82-190 limits assumed): as the sequence (A0A2K5UX81 entry or part of it limits assumed) above, with V7I counted along it
rat PDGF-BB, sequence (Q05028 74-182): as the sequence (P31240 82-190) above, with I83V, I102V counted along it

| Binder | EC50 (rat PDGF-BB) [µg/mL] | T½ (human PDGF-BB [1]) [h] | EC50 (murine PDGF-BB) [µg/mL] | Kd (human PDGF-BB [2]) [nM] | Kd (cynomolgus PDGF-BB [3]) [nM] | Balb-C3T3 Proliferation % neutralization (human PDGF-BB [4]) [%] | Balb-C3T3 Proliferation IC50 (human PDGF-BB [4]) [nM] | Pericytes Migration % neutralization (human PDGF-BB [4]) [%] | Pericytes Migration IC50 (human PDGF-BB [4]) [nM] | Pericytes Proliferation % neutralization (human PDGF-BB [4]) [%] | Pericytes Proliferation IC50 (human PDGF-BB [4]) [nM] | EC50 (cynomolgus PDGF-BB [5]) [µg/mL] | IC50 (human PDGF-BB [6]) [µg/mL] |
| --- | --- | --- | --- | --- | --- | --- | --- | --- | --- | --- | --- | --- | --- |
| antibody 0058 (antibody, V domains shown, Human antibody from a human Ig locus transgenic rabbit; IgG) VH: EVQLVESGGGLVQPGGSLRLSCAASGFTFSSFWMTWVRQAPGKGLEWVASISAGGGITHYPDSVKDRFTVSRDNAKNSLYLQLNSLRAEDTAVYYCAESGGDIYSDFDYWGQGTLVTVSS VL: not shown | 0.0966 | 1.42 | 0.0332 | 0.046 | 0.0288 | 100 | 0.24 | 100 | 0.002 | 100 | 0.08 | 0.0034 | 0.0425 |
| antibody 0064 (antibody, V domains shown, Human antibody from a human Ig locus transgenic rabbit; IgG) VH: EVQLVESGGGLVQPGGSLRLSCAASGFTFSSYWMSWVRQAPGKGLEWVSTISDGGGTTSYADSVKGRFTISRDNSKNTLYLQMNSLRAEDTAVYSCAESGGATDYLFDYWGQGTLVTVSS VL: not shown | 0.00369 | 1.9 | 0.00268 | 0.021 | 0.0596 | 100 | 0.024 | 100 | 0.14 | 100 | 0.08 | 0.00741 | 0.0343 |
| antibody 0060 (antibody, V domains shown, Human antibody from a human Ig locus transgenic rabbit; IgG) VH: EVQLLESGGDLVQPGGSLRLSCAASGFTFRSYAMSWVRQAPGKGLEWVSGISAGGGYIYYADSVTGRFTSSRDNYKNTLYLQMNRLRVEDTAVYYCARFYPGYNSDTYYYDGMDVWGQGTTVTVSS VL: not shown | 0.11 | 1.9 | 0.0428 | 0.021 | < 0.0303 | 90 | 0.29 | 100 | 0.013 | 100 | 0.6 | 0.0415 | 0.0554 |
